# T1: RBP7910 WT (Trypanosoma brucei, UniProt Q38AH3 9-189)
# T1 sequence: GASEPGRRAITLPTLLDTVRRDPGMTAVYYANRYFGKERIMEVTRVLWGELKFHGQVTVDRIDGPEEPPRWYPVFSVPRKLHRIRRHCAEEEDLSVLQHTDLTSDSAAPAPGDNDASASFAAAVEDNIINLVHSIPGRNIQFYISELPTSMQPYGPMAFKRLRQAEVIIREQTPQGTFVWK
# T2: RBP7910 WT (Trypanosoma brucei) (UniProt Q38AH3)
# T2 sequence: T1 sequence
# B1: poly AU RNA (ssRNA)
# RNA: GGGAUUCUUUUCGAGUCUCUUUUAUUUAUUUAUUUAUUUAUUUUUUCUCUCUUAUU
# B2: uridylated non-guide RNA (49 nt) (structured_RNA)
# RNA: GGGUACCAGAUACAUACUAAGGAAUUCGAUAUCACUAUUUUUUUUUUUUUU
# B3: CYb edited mRNA (ssRNA)
# RNA: GGGAAAUAUGUUUUUUCGUGUUAGAUUUUUGUUAUUUUUUUUAUUAUUUAGAAAUUUAUGUUGUCUUUUUA
# Columns and labels:
# [1] = target: T1, RBP7910 WT; experiment: competition; conditions: RBB50: 20 mM Tris-HCl pH 7.6, 50 mM KCl, 5 mM MgCl2, 100 mg/mL BSA (so in the source), 10% glycerol, 1 mM DTT, plus 100 mM KCl and 20 U RNasin; 20 ul, 30 min, RT …
# [2] = target: T1, RBP7910 WT; experiment: EMSA; conditions: RBB50: 20 mM Tris-HCl pH 7.6, 50 mM KCl, 5 mM MgCl2, 100 mg/mL BSA (so in the source), 10% glycerol, 1 mM DTT, plus 100 mM KCl and 20 U RNasin, 20 ul, 30 min, RT …
# [3] = target: T2, RBP7910 WT (Trypanosoma brucei); experiment: competition; conditions: RBB50: 20 mM Tris-HCl pH 7.6, 50 mM KCl, 5 mM MgCl2, 100 mg/mL BSA (so in the source), 10% glycerol, 1 mM DTT, plus 100 mM KCl and 20 U RNasin, 20 ul, 30 min, RT …
# [4] = target: T1, RBP7910 WT; experiment: EMSA; 1 nM labeled RNA, protein titration; specificity confirmed with unlabeled poly AU; RBB50: 20 mM Tris-HCl pH 7.6, 50 mM KCl, 5 mM MgCl2, 100 mg/mL BSA (so in the source), 10% glycerol, 1 mM DTT, plus 100 mM KCl and 20 U RNasin; 20 ul, 30 min, RT; native 10% TBE gel at 4 C; conditions: protein: recombinant; tags: N-terminal 6xHis (pET30-a); label: 32P
# [5] = target: T1, RBP7910 WT; experiment: competition; vs labeled gA6[14]; RBB50: 20 mM Tris-HCl pH 7.6, 50 mM KCl, 5 mM MgCl2, 100 mg/mL BSA (so in the source), 10% glycerol, 1 mM DTT, plus 100 mM KCl and 20 U RNasin; 20 ul, 30 min, RT; native 10% TBE gel at 4 C; conditions: protein: recombinant; tags: N-terminal 6xHis (pET30-a); label: unlabeled; one predicted stem-loop, 3' oligo(U) tail
# [6] = target: T1, RBP7910 WT; experiment: EMSA; 95% CI 1.25-1.97; RBB50: 20 mM Tris-HCl pH 7.6, 50 mM KCl, 5 mM MgCl2, 100 mg/mL BSA (so in the source), 10% glycerol, 1 mM DTT, plus 100 mM KCl and 20 U RNasin; 20 ul, 30 min, RT; native 10% TBE gel at 4 C; conditions: protein: recombinant; tags: N-terminal 6xHis (pET30-a); label: 32P (UTP body or 3' pCp)
molecule,measurement,setting,value
CYb pre-edited mRNA,binding signal (% reduction of bound labeled gA6[14]),[1],50
same,Kd,[2]; 95% CI 2.09-3.66,2.78 nM
GGGAUUAAAAGACAAUGUGAAUUUCUUAAGGUAAUAAAGGGAAUAAUUUUUUUUUUUUUUUU [natural CYb gRNA (gCYb[558]) with U-tail],binding signal (% reduction of bound labeled gA6[14]),[3],50
"GGGGGGACUGACAUUAAAAGAAAUGUGAAUUUUUCUCCGCUUUU [42-mer CYb gRNA (gCYb[558] USD-2A-42nt), no U-tail]",binding signal,[3]; scale: fold less efficient competitor than natural gCYb,10
gA6[14] (delta16G) gRNA with U-tail,Kd,[2]; 95% CI 0.18-0.27,0.21 nM
poly U RNA,binding signal (% reduction of bound labeled poly AU),[1],50
B1,binding result,[4],binds
B2,binding signal,[5],10 fold less efficient competitor than gA6[14]
B3,Kd,[6],1.57 ± 0.06 nM

# Reference: article PMC6459835, “The RNA binding activity of the first identified trypanosome protein with Z-DNA-binding domains”
